Measured values from US20110144024A1.

Assays:
thrombin [1] = assay: cell-based or functional assay
thrombin [2] = assay: SPR (Biacore 3000), 50 nM TM irradiated with 20 Gy over immobilized thrombin; reference is sham-irradiated (0 Gy) TM; 3 experiments
thrombin [3] = assay: SPR (Biacore 3000), 50 nM TM irradiated with 80 Gy over immobilized thrombin; reference is sham-irradiated (0 Gy) TM; 3 experiments
thrombin [4] = assay: SPR (Biacore 3000), 50 nM TM irradiated with 1.77 Gy over immobilized thrombin; reference is sham-irradiated (0 Gy) TM; 3 experiments

- mean reduction in protein C activation, TM exposed to 1.77 Gy without MPO (thrombin [1]): 12%
- reduction in protein C activation, TM exposed to 1.77 Gy in the presence of MPO (thrombin [1]): 40%
- decrease of average RU value relative to baseline (0 Gy) (thrombin [2]): 18.9%
- decrease of average RU value relative to baseline (0 Gy) (thrombin [3]): 21.6%
- decrease of average RU value relative to baseline (0 Gy) (thrombin [4]): 13.2%
Substance: recombinant full length human thrombomodulin (from UniProt P07204 19-515) (receptor)
